Experimental findings from PMC11313003 are described below.

Test [1] concerns the target soluble trimeric-RBD form of the SARS-CoV-2 S protein (RBD aa 330-532, Wuhan strain, with a foldon t (SARS-CoV-2 (ancestral Wuhan strain) | T4 (as in 'T4 fibritin')) (UniProt P0DTC2)). Kind of test: SEC. Background: In gel filtration, larger molecules generally elute earlier.
Test [2] has the same target. Kind of test: Western blot under non-reducing conditions. On the technique in general: A western blot detects proteins with antibodies after separation by electrophoresis.

Broadly, the stoichiometry N is a count of units in the complex or per binding partner. As for “soluble trimeric-RBD form of the SARS-CoV-2 S protein (RBD aa 330-532, Wuhan strain, with a foldon t (from UniProt P0DTC2 330-532) (domain or fragment)”, the stoichiometry N in test [1] and in test [2] was 3 in each case.
